Measured values taken from PMC3115021, “Dynamics of Cdk1 Substrate Specificity during the Cell Cycle” (Molecular Cell, 2011).

How the values were obtained:
Assay in all cases: Quantitative phosphorylation assay of T33-Sic1ΔC constructs and recombinant substrates
Type in all cases: biochemical
Settings in all cases: Table S2; purified protein substrate; relative values, not divided by [S]
Clb2-Cdk1 = target: T1, Clb2-Cdk1 (Saccharomyces cerevisiae, UniProt P00546+P24869)
T1 construct: We purified the four cyclin-Cdk1 complexes from yeast; made in house; host or cells: S. cerevisiae strain DOM0077 (gal-CLB2-TAP, sic1 deleted); Cks1 from bacteria
T1 sequence (P00546 2-298 limits assumed): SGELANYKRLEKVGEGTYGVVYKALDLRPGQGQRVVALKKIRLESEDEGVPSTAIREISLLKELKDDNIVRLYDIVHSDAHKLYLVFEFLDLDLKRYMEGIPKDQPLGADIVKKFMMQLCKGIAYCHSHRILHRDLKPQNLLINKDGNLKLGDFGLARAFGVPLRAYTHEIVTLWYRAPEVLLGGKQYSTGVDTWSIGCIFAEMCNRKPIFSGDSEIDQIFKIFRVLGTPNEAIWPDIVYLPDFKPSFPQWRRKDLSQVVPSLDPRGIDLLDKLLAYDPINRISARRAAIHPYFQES
T1 sequence (P24869 2-491 partner limits assumed): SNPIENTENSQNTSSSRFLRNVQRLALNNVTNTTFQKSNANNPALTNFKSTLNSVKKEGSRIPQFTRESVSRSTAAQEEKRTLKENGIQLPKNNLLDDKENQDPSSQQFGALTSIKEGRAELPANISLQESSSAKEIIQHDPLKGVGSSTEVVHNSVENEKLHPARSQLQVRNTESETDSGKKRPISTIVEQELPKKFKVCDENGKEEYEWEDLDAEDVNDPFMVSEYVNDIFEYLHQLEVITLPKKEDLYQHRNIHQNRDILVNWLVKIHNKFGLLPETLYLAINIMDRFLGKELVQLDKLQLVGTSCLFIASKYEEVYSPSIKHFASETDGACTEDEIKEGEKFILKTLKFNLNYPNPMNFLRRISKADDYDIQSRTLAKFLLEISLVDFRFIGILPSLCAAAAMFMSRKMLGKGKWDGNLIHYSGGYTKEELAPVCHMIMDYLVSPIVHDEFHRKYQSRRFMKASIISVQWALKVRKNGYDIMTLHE
T1 sequence (P20486 whole entry partner): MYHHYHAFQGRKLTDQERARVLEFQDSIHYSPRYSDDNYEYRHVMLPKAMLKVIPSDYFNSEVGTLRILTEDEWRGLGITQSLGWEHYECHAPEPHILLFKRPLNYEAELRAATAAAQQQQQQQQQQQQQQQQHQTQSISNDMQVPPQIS
Method: (§1) For the quantitative phosphorylation assays of T33-Sic1ΔC constructs and recombinant substrates, substrate concentrations were kept in the range of 0.5–2 μM (in the linear [S] versus v0 range, several-fold below the estimated KM value), and initial velocity conditions were defined as an initial substrate turnover of up to 10% of the total turnover. For the steady-state peptide kinetics of the Histone peptide PKTPKKAKKL, a similar assay composition was used as for protein substrates, and phosphocellulose paper was used for the quantification of the phosphorylated substrate. […]
(§2) similar substrate specificity as the Cln2-Cdk1 version purified using a TAP-tag. N-terminally 6His-tagged recombinant T33-Sic1ΔC constructs and substrates were cloned into the pET28a vector and purified by standard cobalt affinity chromatography and elution with 200 mM imidazole. 6His-Fin1 was purified as described previously (Woodbury and Morgan, 2007). Substrates cloned into the pGEX-4T-1 were purified on glutathione agarose columns using 5 mM reduced glutathione for elution. Cks1 was purified as described previously (Reynard et al., 2000). The optimal working concentration for purified Cks1 was taken as 500 nM based on optimization performed for cyclin-Cdk1 preparations and T33-Sic1ΔC as a substrate.
(§3) For the quantitative phosphorylation assays of T33-Sic1ΔC constructs and recombinant substrates, substrate concentrations were kept in the range of 0.5-2 μM (in the linear [S] vs v0 range, several-fold below the estimated KM value), and the initial velocity conditions were defined as an initial substrate turnover ranging up to 10% of the total turnover. The latter was estimated by a long-term incubation with excess amounts of cyclin-Cdk1 and 32P-γ-ATP in the standard reaction mixture given below. About 1-10 nM of purified kinase complex was used, reaction aliquots were taken at two or more time points, and the reaction was stopped by SDS-PAGE sample buffer. The relative kcat/KM values for the substrates were calculated as the ratio of v0/[S], which was determined from at least two independent experiments. The basal composition of the assay mixture contained 50 mM Hepes, pH 7.4, 100 mM NaCl, 0.1% NP-40, 20 mM imidazole, 0.1 mg/ml 2HA peptide, 2% glycerol, 2 mM EGTA, 0.2 mg/ml BSA, […], and 500 μM ATP (with added 32P-γ-ATP (Perkin Elmer)).
(§4) About 1-10 nM of purified kinase complex was used, reaction aliquots were taken at two or more time points, and the reaction was stopped by SDS-PAGE sample buffer. For the steady-state peptide kinetics of the Histone peptide PKTPKKAKKL, a similar assay composition was used as for protein substrates and the standard phosphocellulose method was applied for the quantification of the phosphorylated substrate (Loog and Morgan, 2005). Synthetic peptides as competitor agents were used in 4 mM final concentrations. […]

Clb3-Cdk1 = target: T2, Clb3-Cdk1 (Saccharomyces cerevisiae, UniProt P00546+P24870)
T2 construct: We purified the four cyclin-Cdk1 complexes from yeast; made in house; host or cells: S. cerevisiae strain DOM0957 (gal-CLB3-TAP, sic1 deleted); Cks1 from bacteria
T2 sequence (P00546 2-298 limits assumed): as the sequence (P00546 2-298 limits assumed) above
T2 sequence (P24870 whole entry partner): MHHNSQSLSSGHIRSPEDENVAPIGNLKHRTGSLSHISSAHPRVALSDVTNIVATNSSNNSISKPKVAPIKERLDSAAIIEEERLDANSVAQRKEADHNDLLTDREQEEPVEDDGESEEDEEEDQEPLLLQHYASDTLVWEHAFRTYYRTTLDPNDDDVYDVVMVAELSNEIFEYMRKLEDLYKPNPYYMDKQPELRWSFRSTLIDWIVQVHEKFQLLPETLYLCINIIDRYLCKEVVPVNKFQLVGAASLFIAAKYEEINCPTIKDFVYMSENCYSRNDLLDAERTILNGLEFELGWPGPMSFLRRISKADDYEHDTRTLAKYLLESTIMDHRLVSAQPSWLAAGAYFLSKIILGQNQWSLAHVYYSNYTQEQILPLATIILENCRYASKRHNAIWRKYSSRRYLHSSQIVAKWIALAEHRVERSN
T2 sequence (P20486 whole entry partner): as the sequence (P20486 whole entry partner) above
Method: as §1, §2, §3, §4

Clb5-Cdk1 = target: T3, Clb5-Cdk1 (Saccharomyces cerevisiae, UniProt P00546+P30283)
T3 construct: We purified the four cyclin-Cdk1 complexes from yeast; made in house; host or cells: S. cerevisiae strain DOM0076 (gal-CLB5-TAP, sic1 deleted); Cks1 from bacteria
T3 sequence (P00546 2-298 limits assumed): as the sequence (P00546 2-298 limits assumed) above
T3 sequence (P30283 whole entry partner): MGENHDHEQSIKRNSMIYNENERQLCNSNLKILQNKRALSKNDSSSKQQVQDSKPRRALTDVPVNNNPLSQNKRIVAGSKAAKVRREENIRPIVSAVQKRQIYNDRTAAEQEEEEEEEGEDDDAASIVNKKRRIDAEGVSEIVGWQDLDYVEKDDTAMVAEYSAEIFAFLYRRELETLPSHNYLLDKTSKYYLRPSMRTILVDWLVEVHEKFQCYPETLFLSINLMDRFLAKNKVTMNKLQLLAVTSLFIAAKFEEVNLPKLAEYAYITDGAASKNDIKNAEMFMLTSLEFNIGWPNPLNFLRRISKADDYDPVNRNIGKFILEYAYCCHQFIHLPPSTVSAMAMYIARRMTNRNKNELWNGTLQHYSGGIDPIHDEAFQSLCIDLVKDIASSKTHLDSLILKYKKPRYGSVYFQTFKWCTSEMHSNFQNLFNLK
T3 sequence (P20486 whole entry partner): as the sequence (P20486 whole entry partner) above
Method: as §1, §2, §3, §4

Cln2-Cdk1 = target: T4, Cln2-Cdk1 (Saccharomyces cerevisiae, UniProt P00546+P20438)
T4 construct: We purified the four cyclin-Cdk1 complexes from yeast; made in house; host or cells: S. cerevisiae strain DMY305 (galactose-induced); Cks1 from bacteria
T4 sequence (P00546 2-298 limits assumed): as the sequence (P00546 2-298 limits assumed) above
T4 sequence (P20438 whole entry partner): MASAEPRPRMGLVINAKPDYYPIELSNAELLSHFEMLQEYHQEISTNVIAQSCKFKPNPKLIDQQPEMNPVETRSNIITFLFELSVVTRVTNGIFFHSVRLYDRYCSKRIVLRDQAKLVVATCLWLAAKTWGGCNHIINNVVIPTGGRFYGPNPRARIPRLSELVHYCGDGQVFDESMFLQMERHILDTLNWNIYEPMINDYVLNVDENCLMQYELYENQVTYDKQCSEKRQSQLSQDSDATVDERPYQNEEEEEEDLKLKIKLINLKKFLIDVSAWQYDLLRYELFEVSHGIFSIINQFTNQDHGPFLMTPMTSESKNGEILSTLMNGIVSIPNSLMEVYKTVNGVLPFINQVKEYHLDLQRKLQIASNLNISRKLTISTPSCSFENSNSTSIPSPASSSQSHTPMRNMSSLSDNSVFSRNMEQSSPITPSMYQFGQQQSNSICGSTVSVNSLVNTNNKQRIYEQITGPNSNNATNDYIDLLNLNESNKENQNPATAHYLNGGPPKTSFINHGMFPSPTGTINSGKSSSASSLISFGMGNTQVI
T4 sequence (P20486 whole entry partner): as the sequence (P20486 whole entry partner) above
Method: as §1, §2, §3, §4

Clb2hpm-Cdk1 = target: T5, Clb2hpm-Cdk1 (Saccharomyces cerevisiae, UniProt P00546)
T5 construct: made in house; host or cells: S. cerevisiae strain DOM0964 (gal-CLB2hpm-TAP, sic1 deleted); Cks1 from bacteria
T5 sequence (P00546 2-298 limits assumed): as the sequence (P00546 2-298 limits assumed) above
Method: (§5) For the quantitative phosphorylation assays of T33-Sic1ΔC constructs and recombinant substrates, substrate concentrations were kept in the range of 0.5–2 μM (in the linear [S] versus v0 range, several-fold below the estimated KM value), and initial velocity conditions were defined as an initial substrate turnover of up to 10% of the total turnover. For the steady-state peptide kinetics of the Histone peptide PKTPKKAKKL, a similar assay composition was used as for protein substrates, and phosphocellulose paper was used for the quantification of the phosphorylated substrate.
(§6) Supplemental Experimental Procedures
(§7) Plasmid constructs and yeast strains
(§8) For tandem affinity purification (TAP) of cyclin-Cdk1 complexes, the cyclin genes were cloned into the 2 micron vector pRSAB1234 containing a GAL1 promoter and the C-terminal TAP-tag. To purify different 6His-T33-Sic1ΔC forms for kinase assays, the C-terminally truncated fragment of Sic1 (with a stop codon inserted after amino acid 215) was cloned into the NheI/BamHI site of the bacterial expression vector pET28a (Invitrogen). Mutagenesis of cyclins or substrates was performed using single-stranded pRSAB1234 or pET28a vector constructs as templates. The triple mutants in the hydrophobic patch (hpm) of Clb5 and Clb2 were described previously (Loog and Morgan, 2005), and the hpm of Clb3 (Phe-201, Leu-205 and Trp-208 mutated to alanines) was designed according to sequence homology with other B-type cyclins. In T33-Sic1ΔC constructs, the other Cdk sites bearing the consensus motif S/T-P were mutated to Ala-Ala in order to prevent any possible (pseudo)substrate competition. The other Cdk substrates were cloned as full-length forms into bacterial expression vectors pET28a or pGEX-4T-1. Cdh1 was purified using the baculovirus system and was a kind gift from Monica Rodrigo-Brenni (UCSF). […]
The […]
(§9) pRSAB1234 analogously to the cyclin-Cdk1 complexes. For C-terminal tagging of cyclin genes in their chromosomal loci, the Pringle method was applied (Longtine et al., 1998). Lists of plasmid […]
(§10) The TAP method was applied for purification of cyclin-Cdk1 complexes and Swe1 as described previously for Clb5-TAP-Cdk1 and Clb2-TAP-Cdk1 (Puig et al., 2001; Ubersax et al., 2003). […]
as §2, with “tagged” for “similar substrate specificity as the Cln2-Cdk1 version purified using a TAP-tag. N-terminally 6His-tagged”
as §3
(§11) About 1-10 nM of purified kinase complex was used, reaction aliquots were taken at two or more […]

Clb3hpm-Cdk1 = target: T6, Clb3hpm-Cdk1 (Saccharomyces cerevisiae, UniProt P00546+P24870)
T6 construct: made in house; host or cells: S. cerevisiae strain MK0168 (gal-CLB3hpm-TAP, sic1 deleted); Cks1 from bacteria
Method: as §5, §6, §7, §8
The […]
as §9, §10
as §2, with “tagged” for “similar substrate specificity as the Cln2-Cdk1 version purified using a TAP-tag. N-terminally 6His-tagged”
as §3, §11

Clb5hpm-Cdk1 = target: T7, Clb5hpm-Cdk1 (Saccharomyces cerevisiae, UniProt P00546)
T7 construct: made in house; host or cells: S. cerevisiae strain DOM0963 (gal-CLB5hpm-TAP, sic1 deleted); Cks1 from bacteria
T7 sequence (P00546 2-298 limits assumed): as above
Method: as §5, §6, §7, §8
The […]
as §9, §10
as §2, with “tagged” for “similar substrate specificity as the Cln2-Cdk1 version purified using a TAP-tag. N-terminally 6His-tagged”
as §3, §11

| Molecule | kcat/KM, Clb2 (Clb2-Cdk1) [relative units] | kcat/KM, Clb3 (Clb3-Cdk1) [relative units] | kcat/KM, Clb5 (Clb5-Cdk1) [relative units] | kcat/KM, Cln2 (Cln2-Cdk1) [relative units] | kcat/KM, Clb2hpm (Clb2hpm-Cdk1) [relative units] | kcat/KM, Clb3hpm (Clb3hpm-Cdk1) [relative units] | kcat/KM, Clb5hpm (Clb5hpm-Cdk1) [relative units] |
| --- | --- | --- | --- | --- | --- | --- | --- |
| ORC2: purified yeast protein tested as Cdk1 substrate (protein, UniProt P32833 1-620, looked up) Origin recognition complex …: MLNGEDFVEHNDILSSPAKSRNVTPKRVDPHGERQLRRIHSSKKNLLERISLVGNERKNTSPDPALKPKTPSKAPRKRGRPRKIQEELTDRIKKDEKDTISSKKKRKLDKDTSGNVNEESKTSNNKQVMEKTGIKEKREREKIQVATTTYEDNVTPQTDDNFVSNSPEPPEPATPSKKSLTTNHDFTSPLKQIIMNNLKEYKDSTSPGKLTLSRNFTPTPVPKNKKLYQTSETKSASSFLDTFEGYFDQRKIVRTNAKSRHTMSMAPDVTREEFSLVSNFFNENFQKRPRQKLFEIQKKMFPQYWFELTQGFSLLFYGVGSKRNFLEEFAIDYLSPKIAYSQLAYENELQQNKPVNSIPCLILNGYNPSCNYRDVFKEITDLLVPAELTRSETKYWGNHVILQIQKMIDFYKNQPLDIKLILVVHNLDGPSIRKNTFQTMLSFLSVIRQIAIVASTDHIYAPLLWDNMKAQNYNFVFHDISNFEPSTVESTFQDVMKMGKSDTSSGAEGAKYVLQSLTVNSKKMYKLLIETQMQNMGNLSANTGPKRGTQRTGVELKLFNHLCAADFIASNEIALRSMLREFIEHKMANITKNNSGMEIIWVPYTYAELEKLLKTVLNTL | 0.018 | 0.132 | 0.405 | 0.073 | 0.067 | 0.028 | 0.012 |
| NDD1: component of the transcription factor complex controlling G2/M-specific genes, tested as Cdk1 substrate (protein, UniProt Q08887 1-554, looked up) Nuclear division defective …: MDRDISYQQNYTSTGATATSSRQPSTDNNADTNFLKVMSEFKYNFNSPLPTTTQFPTPYSSNQYQQTQDHFANTDAHNSSSNESSLVENSILPHHQQIQQQQQQQQQQQQQQQALGSLVPPAVTRTDTSETLDDINVQPSSVLQFGNSLPSEFLVASPEQFKEFLLDSPSTNFNFFHKTPAKTPLRFVTDSNGAQQSTTENPGQQQNVFSNVDLNNLLKSNGKTPSSSCTGAFSRTPLSKIDMNLMFNQPLPTSPSKRFSSLSLTPYGRKILNDVGTPYAKALISSNSALVDFQKARKDITTNATSIGLENANNILQRTPLRSNNKKLFIKTPQDTINSTSTLTKDNENKQDIYGSSPTTIQLNSSITKSISKLDNSRIPLLASRSDNILDSNVDDQLFDLGLTRLPLSPTPNCNSLHSTTTGTSALQIPELPKMGSFRSDTGINPISSSNTVSFKSKSGNNNSKGRIKKNGKKPSKFQIIVANIDQFNQDTSSSSLSSSLNASSSAGNSNSNVTKKRASKLKRSQSLLSDSGSKSQARKSCNSKSNGNLFNSQ | 3.129 | 2.121 | 0.388 | 0.143 | 1.108 | 0.222 | 0.096 |
| ORC6: purified yeast protein tested as Cdk1 substrate (protein, UniProt P38826 1-435, looked up) Origin recognition complex …: MSMQQVQHCVAEVLRLDPQEKPDWSSGYLKKLTNATSILYNTSLNKVMLKQDEEVARCHICAYIASQKMNEKHMPDLCYYIDSIPLEPKKAKHLMNLFRQSLSNSSPMKQFAWTPSPKKNKRSPVKNGGRFTSSDPKELRNQLFGTPTKVRKSQNNDSFVIPELPPMQTNESPSITRRKLAFEEDEDEDEEEPGNDGLSLKSHSNKSITGTRNVDSDEYENHESDPTSEEEPLGVQESRSGRTKQNKAVGKPQSELKTAKALRKRGRIPNSLLVKKYCKMTTEEIIRLCNDFELPREVAYKIVDEYNINASRLVCPWQLVCGLVLNCTFIVFNERRRKDPRIDHFIVSKMCSLMLTSKVDDVIECVKLVKELIIGEKWFRDLQIRYDDFDGIRYDEIIFRKLGSMLQTTNILVTDDQYNIWKKRIEMDLALTEPL | 0.009 | 0.018 | 0.029 | 0.002 | 0.005 | 0.002 | 0.001 |
